Assay results: PMC3458533

Key:
Assay in all cases: filter binding
[1] = target: T1, R.MwoI S310D (Methanothermobacter wolfeii (DSMZ), UniProt O59646 1-363, S310D)
T1 sequence: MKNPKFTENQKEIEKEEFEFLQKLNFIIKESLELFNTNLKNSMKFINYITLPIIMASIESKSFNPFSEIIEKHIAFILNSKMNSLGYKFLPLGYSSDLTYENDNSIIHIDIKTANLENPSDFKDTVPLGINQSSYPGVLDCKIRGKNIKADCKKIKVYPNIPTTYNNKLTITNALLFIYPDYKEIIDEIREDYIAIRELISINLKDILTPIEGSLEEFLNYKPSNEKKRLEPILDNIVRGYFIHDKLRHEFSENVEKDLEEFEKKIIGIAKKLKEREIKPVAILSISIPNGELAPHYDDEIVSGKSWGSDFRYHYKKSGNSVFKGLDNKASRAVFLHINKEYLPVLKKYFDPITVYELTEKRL

[2] = target: T2, R.MwoI S310K (Methanothermobacter wolfeii (DSMZ), UniProt O59646 1-363, S310K)
T2 sequence: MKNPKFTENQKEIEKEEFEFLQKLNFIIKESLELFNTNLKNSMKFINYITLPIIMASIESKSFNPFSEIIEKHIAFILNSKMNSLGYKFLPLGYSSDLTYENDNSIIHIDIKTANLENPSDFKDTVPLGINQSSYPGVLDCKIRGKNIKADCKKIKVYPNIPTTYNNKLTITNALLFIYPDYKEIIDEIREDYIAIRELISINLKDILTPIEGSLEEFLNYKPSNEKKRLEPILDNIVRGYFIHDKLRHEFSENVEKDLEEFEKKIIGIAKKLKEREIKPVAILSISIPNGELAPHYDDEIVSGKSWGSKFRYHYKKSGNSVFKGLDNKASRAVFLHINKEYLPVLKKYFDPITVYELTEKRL

[3] = target: T3, R.MwoI S310A (Methanothermobacter wolfeii (DSMZ), UniProt O59646 1-363, S310A)
T3 sequence: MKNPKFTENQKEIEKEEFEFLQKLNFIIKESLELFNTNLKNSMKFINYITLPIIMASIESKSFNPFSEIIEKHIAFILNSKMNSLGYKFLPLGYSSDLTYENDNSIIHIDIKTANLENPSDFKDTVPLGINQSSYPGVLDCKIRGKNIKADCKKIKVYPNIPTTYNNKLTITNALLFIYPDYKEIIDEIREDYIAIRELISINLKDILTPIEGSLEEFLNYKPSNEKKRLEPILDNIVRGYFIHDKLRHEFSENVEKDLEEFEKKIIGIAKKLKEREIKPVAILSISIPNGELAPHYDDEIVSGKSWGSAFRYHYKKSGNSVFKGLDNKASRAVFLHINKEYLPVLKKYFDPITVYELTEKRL

[4] = target: T4, R.MwoI T125R (Methanothermobacter wolfeii (DSMZ), UniProt O59646 1-363, T125R)
T4 sequence: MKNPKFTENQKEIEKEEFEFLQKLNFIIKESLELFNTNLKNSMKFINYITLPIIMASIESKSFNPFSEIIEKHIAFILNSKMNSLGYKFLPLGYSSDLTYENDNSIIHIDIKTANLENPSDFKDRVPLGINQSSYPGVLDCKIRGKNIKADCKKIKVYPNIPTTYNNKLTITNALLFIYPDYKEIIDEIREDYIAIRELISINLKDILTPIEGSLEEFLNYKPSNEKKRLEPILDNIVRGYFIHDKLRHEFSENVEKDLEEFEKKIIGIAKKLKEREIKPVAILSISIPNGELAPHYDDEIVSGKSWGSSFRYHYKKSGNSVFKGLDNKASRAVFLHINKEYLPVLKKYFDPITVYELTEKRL

[5] = target: T5, R.MwoI K112A (Methanothermobacter wolfeii (DSMZ), UniProt O59646 1-363, K112A)
T5 sequence: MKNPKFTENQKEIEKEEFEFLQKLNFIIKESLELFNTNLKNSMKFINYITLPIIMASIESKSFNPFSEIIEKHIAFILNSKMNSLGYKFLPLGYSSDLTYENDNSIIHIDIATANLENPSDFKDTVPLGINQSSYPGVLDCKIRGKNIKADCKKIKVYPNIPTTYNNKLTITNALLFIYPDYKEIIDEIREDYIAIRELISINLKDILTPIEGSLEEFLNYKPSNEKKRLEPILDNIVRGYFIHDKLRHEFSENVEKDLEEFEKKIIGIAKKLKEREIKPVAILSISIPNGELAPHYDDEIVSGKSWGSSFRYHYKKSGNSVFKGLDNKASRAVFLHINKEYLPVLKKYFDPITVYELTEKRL

[6] = target: T6, R.MwoI D110A (Methanothermobacter wolfeii (DSMZ), UniProt O59646 1-363, D110A)
T6 sequence: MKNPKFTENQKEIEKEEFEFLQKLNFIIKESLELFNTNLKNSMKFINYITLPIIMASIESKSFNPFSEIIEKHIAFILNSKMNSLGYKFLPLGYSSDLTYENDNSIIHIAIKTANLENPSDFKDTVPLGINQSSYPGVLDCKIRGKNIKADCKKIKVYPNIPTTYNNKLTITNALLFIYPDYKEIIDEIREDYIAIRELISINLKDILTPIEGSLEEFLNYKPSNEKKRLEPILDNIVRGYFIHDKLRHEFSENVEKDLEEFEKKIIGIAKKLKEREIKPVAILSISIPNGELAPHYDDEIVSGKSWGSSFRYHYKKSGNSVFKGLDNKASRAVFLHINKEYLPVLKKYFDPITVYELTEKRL

[7] = target: T7, R.MwoI E68A (Methanothermobacter wolfeii (DSMZ), UniProt O59646 1-363, E68A)
T7 sequence: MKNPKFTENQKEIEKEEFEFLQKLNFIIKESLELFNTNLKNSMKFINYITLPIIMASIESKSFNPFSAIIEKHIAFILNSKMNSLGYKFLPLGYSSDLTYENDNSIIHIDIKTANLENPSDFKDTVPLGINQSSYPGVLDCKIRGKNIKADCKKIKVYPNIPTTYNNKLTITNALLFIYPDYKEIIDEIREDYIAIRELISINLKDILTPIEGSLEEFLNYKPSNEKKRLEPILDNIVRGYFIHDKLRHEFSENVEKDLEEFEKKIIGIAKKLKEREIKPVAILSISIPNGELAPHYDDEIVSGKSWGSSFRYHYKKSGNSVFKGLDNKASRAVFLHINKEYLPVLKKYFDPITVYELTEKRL

[8] = target: T8, R.MwoI A330R (Methanothermobacter wolfeii (DSMZ), UniProt O59646 1-363, A330R)
T8 sequence: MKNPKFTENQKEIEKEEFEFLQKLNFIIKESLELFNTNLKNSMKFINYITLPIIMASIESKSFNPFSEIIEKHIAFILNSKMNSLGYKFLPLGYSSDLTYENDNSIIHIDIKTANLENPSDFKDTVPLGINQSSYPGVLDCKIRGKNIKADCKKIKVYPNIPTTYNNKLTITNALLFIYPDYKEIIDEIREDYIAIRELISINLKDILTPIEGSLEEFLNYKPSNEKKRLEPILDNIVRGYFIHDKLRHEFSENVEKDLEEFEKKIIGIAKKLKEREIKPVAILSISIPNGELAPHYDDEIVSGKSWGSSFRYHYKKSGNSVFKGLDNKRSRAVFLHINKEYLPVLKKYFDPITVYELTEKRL

B1: G/C (GCGN5CGC) (dsDNA)
DNA 1: GACAGTGCGATCTCCGCGACAGT
DNA 2: ACTGTCGCGGAGATCGCACTGTC
binding result [1]: binds

B2: C/G (GCCN5GGC) (dsDNA)
DNA 1: GACAGTGCCATCTCGGCGACAGT
DNA 2: ACTGTCGCCGAGATGGCACTGTC
binding result [2]: binds

B3: MwoI target oligonucleotide (dsDNA)
DNA 1: CGGCTGTAGTCGCAC
DNA 2: GTGCGACTACAGCCG
binding signal [3]: 53 % of wt
binding signal [4]: 42 % of wt
binding signal [5]: 114 % of wt
binding signal [6]: 25 % of wt
binding signal [7]: > 350 % of wt
binding signal [8]: > 350 % of wt

B4: A/T (GCAN5TGC) (dsDNA)
DNA 1: GACAGTGCAATCTCTGCGACAGT
DNA 2: ACTGTCGCAGAGATTGCACTGTC
binding result [1]: binds
